According to patent publication US20150315260A1 (Sanofi, published 2015):
Starred links: 1 amine or outer side, 2 acyl side, 3 side chain; linkers in the order of their positions; H or OH if unused. Non-standard residues stand in square brackets, D forms with d. Groups on a side chain read outwards from the residue. No end group written: not given here. *: point of attachment. γGlu = O=C(O)[C@H](CCC(=O)[*:2])N[*:1]; Stearoyl = CCCCCCCCCCCCCCCCCC(=O)*; Palmitoyl = CCCCCCCCCCCCCCCC(=O)*; AEEA = NCCOCCOCC(=O)O; Aib = CC(C)(N)C(=O)O

T1: human GIP receptor (human, UniProt P48546 22-466)
T1 sequence (looked up): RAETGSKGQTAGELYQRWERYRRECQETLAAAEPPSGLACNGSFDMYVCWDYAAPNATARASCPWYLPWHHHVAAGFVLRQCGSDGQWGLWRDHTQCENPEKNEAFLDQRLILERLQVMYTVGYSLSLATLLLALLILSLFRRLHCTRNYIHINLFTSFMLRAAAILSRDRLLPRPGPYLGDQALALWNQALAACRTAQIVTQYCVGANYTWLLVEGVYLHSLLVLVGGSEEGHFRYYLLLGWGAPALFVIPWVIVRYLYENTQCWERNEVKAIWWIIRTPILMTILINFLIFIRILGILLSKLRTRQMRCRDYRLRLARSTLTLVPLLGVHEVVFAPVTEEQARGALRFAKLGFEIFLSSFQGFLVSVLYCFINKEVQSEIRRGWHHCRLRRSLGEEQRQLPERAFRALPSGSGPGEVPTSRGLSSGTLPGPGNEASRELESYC

B1: exendin-4 derivative SEQ ID NO: 17 (peptide)
peptide: H[Aib]QGTFTSDLSKQK([AEEA-AEEA-γGlu-Stearoyl])DEQRAKLFIEWL[Aib]AGGPSSGAPPPS-NH2
modifications: N-terminus assumed
SMILES: CCCCCCCCCCCCCCCCCC(=O)N[C@@H](CCC(=O)NCCOCCOCC(=O)NCCOCCOCC(=O)NCCCC[C@H](NC(=O)[C@H](CCC(N)=O)NC(=O)[C@H](CCCCN)NC(=O)[C@H](CO)NC(=O)[C@H](CC(C)C)NC(=O)[C@H](CC(=O)O)NC(=O)[C@H](CO)NC(=O)[C@@H](NC(=O)[C@H](Cc1ccccc1)NC(=O)[C@@H](NC(=O)CNC(=O)[C@H](CCC(N)=O)NC(=O)C(C)(C)NC(=O)[C@@H](N)Cc1c[nH]cn1)[C@@H](C)O)[C@@H](C)O)C(=O)N[C@@H](CC(=O)O)C(=O)N[C@@H](CCC(=O)O)C(=O)N[C@@H](CCC(N)=O)C(=O)N[C@@H](CCCNC(=N)N)C(=O)N[C@@H](C)C(=O)N[C@@H](CCCCN)C(=O)N[C@@H](CC(C)C)C(=O)N[C@@H](Cc1ccccc1)C(=O)N[C@H](C(=O)N[C@@H](CCC(=O)O)C(=O)N[C@@H](Cc1c[nH]c2ccccc12)C(=O)N[C@@H](CC(C)C)C(=O)NC(C)(C)C(=O)N[C@@H](C)C(=O)NCC(=O)NCC(=O)N1CCC[C@H]1C(=O)N[C@@H](CO)C(=O)N[C@@H](CO)C(=O)NCC(=O)N[C@@H](C)C(=O)N1CCC[C@H]1C(=O)N1CCC[C@H]1C(=O)N1CCC[C@H]1C(=O)N[C@@H](CO)C(N)=O)[C@@H](C)CC)C(=O)O
B2: exendin-4 derivative SEQ ID NO: 6 (peptide)
peptide: H[Aib]QGTFTSDLSKQK([γGlu-Stearoyl])DEQRAKLFIEWL[Aib]A[dA]GPSSGAPPPS-NH2
modifications: N-terminus assumed
SMILES: CCCCCCCCCCCCCCCCCC(=O)N[C@@H](CCC(=O)NCCCC[C@H](NC(=O)[C@H](CCC(N)=O)NC(=O)[C@H](CCCCN)NC(=O)[C@H](CO)NC(=O)[C@H](CC(C)C)NC(=O)[C@H](CC(=O)O)NC(=O)[C@H](CO)NC(=O)[C@@H](NC(=O)[C@H](Cc1ccccc1)NC(=O)[C@@H](NC(=O)CNC(=O)[C@H](CCC(N)=O)NC(=O)C(C)(C)NC(=O)[C@@H](N)Cc1c[nH]cn1)[C@@H](C)O)[C@@H](C)O)C(=O)N[C@@H](CC(=O)O)C(=O)N[C@@H](CCC(=O)O)C(=O)N[C@@H](CCC(N)=O)C(=O)N[C@@H](CCCNC(=N)N)C(=O)N[C@@H](C)C(=O)N[C@@H](CCCCN)C(=O)N[C@@H](CC(C)C)C(=O)N[C@@H](Cc1ccccc1)C(=O)N[C@H](C(=O)N[C@@H](CCC(=O)O)C(=O)N[C@@H](Cc1c[nH]c2ccccc12)C(=O)N[C@@H](CC(C)C)C(=O)NC(C)(C)C(=O)N[C@@H](C)C(=O)N[C@H](C)C(=O)NCC(=O)N1CCC[C@H]1C(=O)N[C@@H](CO)C(=O)N[C@@H](CO)C(=O)NCC(=O)N[C@@H](C)C(=O)N1CCC[C@H]1C(=O)N1CCC[C@H]1C(=O)N1CCC[C@H]1C(=O)N[C@@H](CO)C(N)=O)[C@@H](C)CC)C(=O)O
B3: exendin-4 derivative SEQ ID NO: 18 (peptide)
peptide: H[Aib]QGTFTSDLSKQK([AEEA-AEEA-AEEA-Stearoyl])DEQRAKLFIEWL[Aib]AGGPSSGAPPPS-NH2
modifications: N-terminus assumed
SMILES: CCCCCCCCCCCCCCCCCC(=O)NCCOCCOCC(=O)NCCOCCOCC(=O)NCCOCCOCC(=O)NCCCC[C@H](NC(=O)[C@H](CCC(N)=O)NC(=O)[C@H](CCCCN)NC(=O)[C@H](CO)NC(=O)[C@H](CC(C)C)NC(=O)[C@H](CC(=O)O)NC(=O)[C@H](CO)NC(=O)[C@@H](NC(=O)[C@H](Cc1ccccc1)NC(=O)[C@@H](NC(=O)CNC(=O)[C@H](CCC(N)=O)NC(=O)C(C)(C)NC(=O)[C@@H](N)Cc1c[nH]cn1)[C@@H](C)O)[C@@H](C)O)C(=O)N[C@@H](CC(=O)O)C(=O)N[C@@H](CCC(=O)O)C(=O)N[C@@H](CCC(N)=O)C(=O)N[C@@H](CCCNC(=N)N)C(=O)N[C@@H](C)C(=O)N[C@@H](CCCCN)C(=O)N[C@@H](CC(C)C)C(=O)N[C@@H](Cc1ccccc1)C(=O)N[C@H](C(=O)N[C@@H](CCC(=O)O)C(=O)N[C@@H](Cc1c[nH]c2ccccc12)C(=O)N[C@@H](CC(C)C)C(=O)NC(C)(C)C(=O)N[C@@H](C)C(=O)NCC(=O)NCC(=O)N1CCC[C@H]1C(=O)N[C@@H](CO)C(=O)N[C@@H](CO)C(=O)NCC(=O)N[C@@H](C)C(=O)N1CCC[C@H]1C(=O)N1CCC[C@H]1C(=O)N1CCC[C@H]1C(=O)N[C@@H](CO)C(N)=O)[C@@H](C)CC
B4: exendin-4 derivative SEQ ID NO: 16 (peptide)
peptide: H[Aib]QGTFTSDLSKQK([AEEA-AEEA-γGlu-Palmitoyl])DEQRAKLFIEWL[Aib]AGGPSSGAPPPS-NH2
modifications: N-terminus assumed
SMILES: CCCCCCCCCCCCCCCC(=O)N[C@@H](CCC(=O)NCCOCCOCC(=O)NCCOCCOCC(=O)NCCCC[C@H](NC(=O)[C@H](CCC(N)=O)NC(=O)[C@H](CCCCN)NC(=O)[C@H](CO)NC(=O)[C@H](CC(C)C)NC(=O)[C@H](CC(=O)O)NC(=O)[C@H](CO)NC(=O)[C@@H](NC(=O)[C@H](Cc1ccccc1)NC(=O)[C@@H](NC(=O)CNC(=O)[C@H](CCC(N)=O)NC(=O)C(C)(C)NC(=O)[C@@H](N)Cc1c[nH]cn1)[C@@H](C)O)[C@@H](C)O)C(=O)N[C@@H](CC(=O)O)C(=O)N[C@@H](CCC(=O)O)C(=O)N[C@@H](CCC(N)=O)C(=O)N[C@@H](CCCNC(=N)N)C(=O)N[C@@H](C)C(=O)N[C@@H](CCCCN)C(=O)N[C@@H](CC(C)C)C(=O)N[C@@H](Cc1ccccc1)C(=O)N[C@H](C(=O)N[C@@H](CCC(=O)O)C(=O)N[C@@H](Cc1c[nH]c2ccccc12)C(=O)N[C@@H](CC(C)C)C(=O)NC(C)(C)C(=O)N[C@@H](C)C(=O)NCC(=O)NCC(=O)N1CCC[C@H]1C(=O)N[C@@H](CO)C(=O)N[C@@H](CO)C(=O)NCC(=O)N[C@@H](C)C(=O)N1CCC[C@H]1C(=O)N1CCC[C@H]1C(=O)N1CCC[C@H]1C(=O)N[C@@H](CO)C(N)=O)[C@@H](C)CC)C(=O)O
B5: exendin-4 derivative SEQ ID NO: 7 (peptide)
peptide: H[Aib]QGTFTSDLSKQK([γGlu-γGlu-Palmitoyl])DEQRAKLFIEWL[Aib]A[dA]GPSSGAPPPS-NH2
modifications: N-terminus assumed
SMILES: CCCCCCCCCCCCCCCC(=O)N[C@@H](CCC(=O)N[C@@H](CCC(=O)NCCCC[C@H](NC(=O)[C@H](CCC(N)=O)NC(=O)[C@H](CCCCN)NC(=O)[C@H](CO)NC(=O)[C@H](CC(C)C)NC(=O)[C@H](CC(=O)O)NC(=O)[C@H](CO)NC(=O)[C@@H](NC(=O)[C@H](Cc1ccccc1)NC(=O)[C@@H](NC(=O)CNC(=O)[C@H](CCC(N)=O)NC(=O)C(C)(C)NC(=O)[C@@H](N)Cc1c[nH]cn1)[C@@H](C)O)[C@@H](C)O)C(=O)N[C@@H](CC(=O)O)C(=O)N[C@@H](CCC(=O)O)C(=O)N[C@@H](CCC(N)=O)C(=O)N[C@@H](CCCNC(=N)N)C(=O)N[C@@H](C)C(=O)N[C@@H](CCCCN)C(=O)N[C@@H](CC(C)C)C(=O)N[C@@H](Cc1ccccc1)C(=O)N[C@H](C(=O)N[C@@H](CCC(=O)O)C(=O)N[C@@H](Cc1c[nH]c2ccccc12)C(=O)N[C@@H](CC(C)C)C(=O)NC(C)(C)C(=O)N[C@@H](C)C(=O)N[C@H](C)C(=O)NCC(=O)N1CCC[C@H]1C(=O)N[C@@H](CO)C(=O)N[C@@H](CO)C(=O)NCC(=O)N[C@@H](C)C(=O)N1CCC[C@H]1C(=O)N1CCC[C@H]1C(=O)N1CCC[C@H]1C(=O)N[C@@H](CO)C(N)=O)[C@@H](C)CC)C(=O)O)C(=O)O
B6: exendin-4 derivative SEQ ID NO: 24 (comparison compound, Leu in position 14) (peptide)
peptide: H[Aib]QGTFTSDLSKQLDEQRAKLFIEWL[Aib]AGGPSSGAPPPS-NH2
modifications: N-terminus assumed
SMILES: CC[C@H](C)[C@H](NC(=O)[C@H](Cc1ccccc1)NC(=O)[C@H](CC(C)C)NC(=O)[C@H](CCCCN)NC(=O)[C@H](C)NC(=O)[C@H](CCCNC(=N)N)NC(=O)[C@H](CCC(N)=O)NC(=O)[C@H](CCC(=O)O)NC(=O)[C@H](CC(=O)O)NC(=O)[C@H](CC(C)C)NC(=O)[C@H](CCC(N)=O)NC(=O)[C@H](CCCCN)NC(=O)[C@H](CO)NC(=O)[C@H](CC(C)C)NC(=O)[C@H](CC(=O)O)NC(=O)[C@H](CO)NC(=O)[C@@H](NC(=O)[C@H](Cc1ccccc1)NC(=O)[C@@H](NC(=O)CNC(=O)[C@H](CCC(N)=O)NC(=O)C(C)(C)NC(=O)[C@@H](N)Cc1c[nH]cn1)[C@@H](C)O)[C@@H](C)O)C(=O)N[C@@H](CCC(=O)O)C(=O)N[C@@H](Cc1c[nH]c2ccccc12)C(=O)N[C@@H](CC(C)C)C(=O)NC(C)(C)C(=O)N[C@@H](C)C(=O)NCC(=O)NCC(=O)N1CCC[C@H]1C(=O)N[C@@H](CO)C(=O)N[C@@H](CO)C(=O)NCC(=O)N[C@@H](C)C(=O)N1CCC[C@H]1C(=O)N1CCC[C@H]1C(=O)N1CCC[C@H]1C(=O)N[C@@H](CO)C(N)=O

The binders below were run against T2, human glucagon receptor (human, UniProt P47871 26-477) (assay: cell-based or functional assay).
T2 sequence (P47871 26-477): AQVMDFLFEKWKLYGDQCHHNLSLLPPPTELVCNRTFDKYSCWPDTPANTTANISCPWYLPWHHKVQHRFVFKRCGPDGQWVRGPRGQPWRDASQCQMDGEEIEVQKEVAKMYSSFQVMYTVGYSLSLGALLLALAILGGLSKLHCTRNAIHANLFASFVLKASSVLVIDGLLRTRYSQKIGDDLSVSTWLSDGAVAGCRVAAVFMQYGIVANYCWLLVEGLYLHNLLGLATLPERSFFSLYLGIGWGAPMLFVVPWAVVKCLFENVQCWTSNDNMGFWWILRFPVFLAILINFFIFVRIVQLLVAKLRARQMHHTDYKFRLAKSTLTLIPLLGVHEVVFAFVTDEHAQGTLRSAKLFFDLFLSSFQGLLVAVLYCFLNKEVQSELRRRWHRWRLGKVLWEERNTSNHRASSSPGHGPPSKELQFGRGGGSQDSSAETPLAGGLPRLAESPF

Binder | EC50 hGlucagon-R (cAMP formation) [nM]
B1 | 0.0162
B2 | 0.136
B3 | 0.0086
B4 | 0.042
B5 | 0.101

Each binder was assayed against T3, human GLP-1 receptor (human, UniProt P43220 24-463) (assay: cell-based or functional assay).

Binder | EC50 hGLP-1R (cAMP formation) [nM]
B1 | 0.0028
B2 | 0.0141
B3 | 0.0083
B4 | 0.002
B5 | 0.0034

Each binder was assayed against T1, human GIP receptor (assay: cell-based or functional assay).

Binder | EC50 hGIP-R (cAMP formation) [nM]
B1 | 0.906
B2 | 2.76
B3 | 2.16
B4 | 1.87
B5 | 7.62

Biological target: T2, human glucagon receptor
Assay: cell-based or functional assay
Remark: another data set of the same source

Binder | EC50 hGlucagon-R (cAMP formation) [nM]
B6 | 3.09

Biological target: T3, human GLP-1 receptor
Assay: cell-based or functional assay
Remark: another data set of the same source

Binder | EC50 hGLP-1R (cAMP formation) [nM]
B6 | 0.008

Biological target: T1, human GIP receptor
Assay: cell-based or functional assay
Remark: another data set of the same source

Binder | EC50 hGIP-1 (cAMP formation, GIP receptor) [nM]
B6 | 114
